Reference: paper PMC11214836, “ILF3 safeguards telomeres from aberrant homologous recombination as a telomeric R-loop reader”

Target: T1, ILF3-GFP full-length (UniProt Q12906 1-894)
T1 sequence: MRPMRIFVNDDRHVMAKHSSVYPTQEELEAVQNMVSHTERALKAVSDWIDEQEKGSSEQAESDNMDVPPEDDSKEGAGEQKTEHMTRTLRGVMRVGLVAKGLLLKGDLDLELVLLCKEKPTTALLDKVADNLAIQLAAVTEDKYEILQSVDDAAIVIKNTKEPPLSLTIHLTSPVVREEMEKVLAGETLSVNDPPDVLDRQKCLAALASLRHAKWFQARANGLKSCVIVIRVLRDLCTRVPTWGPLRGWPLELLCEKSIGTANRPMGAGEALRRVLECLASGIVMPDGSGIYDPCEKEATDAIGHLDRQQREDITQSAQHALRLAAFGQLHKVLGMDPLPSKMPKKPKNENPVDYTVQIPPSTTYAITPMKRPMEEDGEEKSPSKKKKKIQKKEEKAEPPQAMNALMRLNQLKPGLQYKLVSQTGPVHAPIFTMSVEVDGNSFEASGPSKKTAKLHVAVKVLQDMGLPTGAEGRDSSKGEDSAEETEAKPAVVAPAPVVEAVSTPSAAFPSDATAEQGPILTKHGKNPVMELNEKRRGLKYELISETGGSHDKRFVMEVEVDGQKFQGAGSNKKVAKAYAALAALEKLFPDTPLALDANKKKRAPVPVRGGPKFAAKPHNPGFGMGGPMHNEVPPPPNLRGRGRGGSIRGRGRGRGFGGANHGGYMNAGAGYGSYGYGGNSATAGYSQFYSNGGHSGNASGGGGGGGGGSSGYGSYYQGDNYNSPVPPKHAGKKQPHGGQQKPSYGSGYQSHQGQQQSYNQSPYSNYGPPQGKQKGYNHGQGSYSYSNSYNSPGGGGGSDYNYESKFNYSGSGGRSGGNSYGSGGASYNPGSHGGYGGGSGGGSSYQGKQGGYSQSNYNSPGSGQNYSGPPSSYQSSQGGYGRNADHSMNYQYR
Experiment: MST; MST: 50 nM His-ILF3-GFP, oligo 0.4 nM-5 uM, 25 mM Tris-HCl pH 7.5, 100 mM NaCl, room temperature
Details: protein: recombinant, tags: His, blunt

B1: mutTERRA RNA:DNA hybrid (UUAGCC) (DNA:RNA)
RNA: AGGGUUAGCCUUAGCCUUAGCC
DNA: GGCTAAGGCTAAGGCTAACCCT
Does B1 bind?
Result: no binding
